# Test results published in article PMC4621449.
# Molecular target: SO_3165 antitoxin (MNT family), SO_3165-CHis (Shewanella oneidensis (MR-1)) (UniProt Q8ECH7)
# Assay: EMSA
# Settings: 10 mM HEPES pH 7.3, 20 mM KCl, 1 mM MgCl2, 5% glycerol, NP-40, poly dI-dC, 25 C, 1 h; 0.05 pmol biotin-DNA; 6% gel in 0.5x TBE
# Chain of SO_3165 antitoxin (MNT family), SO_3165-CHis (Shewanella oneidensis (MR-1)) (Q8ECH7 whole entry): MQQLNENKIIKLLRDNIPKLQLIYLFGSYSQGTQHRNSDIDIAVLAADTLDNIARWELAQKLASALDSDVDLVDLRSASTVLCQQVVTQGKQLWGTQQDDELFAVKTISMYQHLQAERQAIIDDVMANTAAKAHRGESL
sequence,measurement,value
TACGAGGCCAGAATTTAAAAGCGCAGCCGTCAGAAATGCAGCGATTAGAAGAAGTTGAAACTTCCGATGCAACCTCTTCAGACGCTGAACTACCAATACTTAAGCACACACATATAGAAAACCCGTCCCTACTATACCATAAACAATGTCAGGTACTGCGTATCGTTATAGAATGCACTAAAAAGTTCTAGATTAGAGCCACACAGTGGCGTCTTCAAAACCTGTGTCCGTCCTTTTGGCTCCGCCTTAATATGCTATATACTCATCCCGTATTCATCAAATCGTGCAATGGACCT (double strand) [PSO_3165-3166 promoter],binding,binds
